From patent publication US20190359693A1

Columns and labels:
[1] = molecular target: hemagglutinin (HA) of influenza B/Harbin/7/94 (Yamagata) (influenza B virus); assay: cell-based or functional assay
[2] = molecular target: hemagglutinin (HA) of influenza B/Lee/40 (Old) (influenza B virus) (UniProt P03460); assay: cell-based or functional assay
Chain of hemagglutinin (HA) of influenza B/Lee/40 (Old) (influenza B virus) (P03460 16-584 limits assumed): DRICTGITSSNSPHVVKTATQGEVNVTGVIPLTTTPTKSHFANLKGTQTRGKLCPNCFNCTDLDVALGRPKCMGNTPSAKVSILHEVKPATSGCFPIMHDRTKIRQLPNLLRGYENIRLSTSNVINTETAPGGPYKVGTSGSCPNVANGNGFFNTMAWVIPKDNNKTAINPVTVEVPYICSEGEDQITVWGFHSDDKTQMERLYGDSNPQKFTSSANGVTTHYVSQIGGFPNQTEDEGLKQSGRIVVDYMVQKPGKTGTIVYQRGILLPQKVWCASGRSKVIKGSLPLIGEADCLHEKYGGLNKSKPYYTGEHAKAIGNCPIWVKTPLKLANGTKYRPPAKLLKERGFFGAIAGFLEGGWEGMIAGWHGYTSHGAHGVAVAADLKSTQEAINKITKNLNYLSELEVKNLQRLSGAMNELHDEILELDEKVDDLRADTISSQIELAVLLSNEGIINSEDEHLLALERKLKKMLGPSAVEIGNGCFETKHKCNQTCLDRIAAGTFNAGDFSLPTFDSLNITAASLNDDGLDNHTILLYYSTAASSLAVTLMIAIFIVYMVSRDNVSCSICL

Binder | VNA IC50 [1] [nM] | VNA IC50 [2] [nM]
SD3001 (VHH) VHH: EVQLVESGGGLVQPGGSLRLSCAASGFTFSTSWMSWLRQAPGKGLEWVSVINTDGGTYYADSVKGRFTISRDNSKNTLYLQMNSLRAEDTAVYYCAKDWGGPEPTRGQGTQVTVSS | > 1000 | > 1000
SD3004 (VHH) VHH: EVQLVESGGGLVQPGGSLRLSCAASGFTFSTSWMYWLRQAPGKGLEWVSVINTDGGTYYADSVKGRFTISRDNSKDTLYLQMNSLRAEDTAVYYCAKDWGGPEPTRGQGTQVTVSS | 101 | > 1000
SD3003 (VHH) VHH: EVQLVESGGGLVQPGGSLRLSCAASGFTFSTSWMSWLRQAPGKGLEWVSVINTDGGTYYADSVKGRFTISRDNSKDTLYLQMNSLRAEDTAVYYCAKDWGGPEPTRGQGTQVTVSS | > 1000 | > 1000
SD3086 (VHH) VHH: EVQLVESGGGLVQPGGSLRLSCAASGFTFSTSWMYWVRQAPGKGLEWVSVINTDGGTYYADSVKGRFTISRDNSKNTLYLQMNSLRAEDTAVYYCAKDWGGPEPTRGQGTLVTVSS |  | > 1000
SD3002 (VHH) VHH: EVQLVESGGGLVQPGGSLRLSCAASGFTFSTSWMYWLRQAPGKGLEWVSVINTDGGTYYADSVKGRFTISRDNSKNTLYLQMNSLRAEDTAVYYCAKDWGGPEPTRGQGTQVTVSS | 137 | > 1000
SD3069 (VHH) VHH: EVQLVESGGGLVQPGGSLRLSCAISGLSLDTYAVGWFRQAPGKEREGITCISSGHGMTYYADSVKGRFTVSTDNSKNTLYLQMNSLRAEDTAVYYCATESRYYCSDNWPAPQRYIYWGQGTLVTVSS | > 1000 | 67
SD3071 (VHH) VHH: EVQLVESGGGLVQPGGSLRLSCAISGLSLDTYAVGWFRQAPGKEREGITCISSGHGLTYYADSVKGRFTVSTDNSKNTLYLQMNSLRAEDTAVYYCATESRYYCSDNWPAPQRYIYWGQGTLVTVSS | > 1000 | > 1000
SD3070 (VHH) VHH: EVQLVESGGGLVQPGGSLRLSCAISGLSLDTYAVGWFRQAPGKEREGITCISSGHGITYYADSVKGRFTVSTDNSKNTLYLQMNSLRAEDTAVYYCATESRYYCSDNWPAPQRYIYWGQGTLVTVSS | > 1000 | > 1000
SD3007 (VHH) VHH: EVQLLESGGGLVQPGGSLRLSCAASGFTLENKAIGWFRQAPGKEREGVSCISKSGSWTYYADSVKGRFTISRDNSKNTVYLQMNSLRAEDTAVYYCATTTAGGGLCWDGTTFSRLASSWGQGTQVTVSS | > 1000 | > 1000
SD3088 (VHH) VHH: EVQLLESGGGLVQPGGSLRLSCAASGFTLENKAIGWFRQAPGKEREGVLCISKSGSWTYYADSVKGRFTISRDNSKNTLYLQMNSLRAEDTAVYYCATTTAGGGLCWDGTTFSRLASSWGQGTLVTVSS |  | 127
SD3009 (VHH) VHH: EVQLLESGGGLVQPGGSLRLSCAASGFTLENKAMSWFRQAPGKEREGVLCISKSGSWTYYADSVKGRFTISRDNSKNTLYLQMNSLRAEDTAVYYCATTTAGGGLCWDGTTFSRLASSWGQGTQVTVSS | 516 | 372
SD3010 (VHH) VHH: EVQLLESGGGLVQPGGSLRLSCAASGFTLENKAIGWFRQAPGKEREGVLCISKSGSWTYYADSVKGRFTISRDNSKNTLYLQMNSLRAEDTAVYYCATTTAGGGLCWDGTTFSRLASSWGQGTQVTVSS | 173 | 227
SD3012 (VHH) VHH: EVQLLESGGGLVQPGGSLRLSCAASGFTLENKAIGWFRQAPGKEREGVLCISKSGSWTYYADSVKGRFTISRDNSKNTVYLQMNSLRPEDTAVYYCATTTAGGGLCWDGTTFSRLASSWGQGTQVTVSS | 78 | 60
SD3008 (VHH) VHH: EVQLLESGGGLVQPGGSLRLSCAASGFTLENKAIGWFRQAPGKEREGVSCISKSGSWTYYADSVKGRFTISRDNSKNTVYLQMNSLRPEDTAVYYCATTTAGGGLCWDGTTFSRLASSWGQGTQVTVSS | > 1000 | > 1000
SD3011 (VHH) VHH: EVQLLESGGGLVQPGGSLRLSCAASGFTLENKAIGWFRQAPGKEREGVLCISKSGSWTYYADSVKGRFTISRDNSKNTVYLQMNSLRAEDTAVYYCATTTAGGGLCWDGTTFSRLASSWGQGTQVTVSS | 96 | 59
SD3049 (VHH) VHH: EVQLVESGGGLVQPGGSLRLSCAASGLSLDTYAMSWFRQAPGKEREGVSCISSGHGMTYYADSVKGRFTISRDNSKNTLYLQMNSLQPEDTARYYCATESRYYCSDNWPAPQRYIYWGQGTQVTVSS | > 1000 | 

Binder | VNA IC50 [1] [nM] | VNA IC50 [2] [nM]
SD3072 (VHH) VHH: EVQLVESGGGLVQPGGSLRLSCAASGLSLDTYAVGWFRQAPGKEREGITCISSGHGMTYYADSVKGRFTVSTDNSKNTLYLQMNSLRAEDTAVYYCATESRYYCSDNWPAPQRYIYWGQGTLVTVSS | > 1000 | 318
SD3074 (VHH) VHH: EVQLVESGGGLVQPGGSLRLSCAISGLSLDTYAVGWFRQAPGKEREGITCISSGHGMTYYADSVKGRFTISTDNSKNTLYLQMNSLRAEDTAVYYCATESRYYCSDNWPAPQRYIYWGQGTLVTVSS | > 1000 | 42
SD3054 (VHH) VHH: EVQLVESGGGLVQPGGSLRLSCAASGLSLDTYAMSWFRQAPGKEREGITCISSGHGITYYADSVKGRFTISRDNSKNTLYLQMNSLQPEDTARYYCATESRYYCSDNWPAPQRYIYWGQGTQVTVSS | > 1000 | 
SD3075 (VHH) VHH: EVQLVESGGGLVQPGGSLRLSCAASGLSLDTYAVGWFRQAPGKEREGVSCISSGHGITYYADSVKGRFTISTDNSKNTLYLQMNSLRAEDTAVYYCATESRYYCSDNWPAPQRYIYWGQGTLVTVSS | > 1000 | > 1000
SD3056 (VHH) VHH: EVQLVESGGGLVQPGGSLRLSCAASGLSLDTYAMSWFRQAPGKEREGITCISSGHGFTYYADSVKGRFTISRDNSKNTLYLQMNSLQPEDTARYYCATESRYYCSDNWPAPQRYIYWGQGTQVTVSS | > 1000 | 
SD3073 (VHH) VHH: EVQLVESGGGLVQPGGSLRLSCAISGLSLDTYAVGWFRQAPGKEREGVSCISSGHGMTYYADSVKGRFTVSTDNSKNTLYLQMNSLRAEDTAVYYCATESRYYCSDNWPAPQRYIYWGQGTLVTVSS | > 1000 | 59
SD3050 (VHH) VHH: EVQLVESGGGLVQPGGSLRLSCAASGLSLDTYAMSWFRQAPGKEREGITCISSGHGMTYYADSVKGRFTISRDNSKNTLYLQMNSLQPEDTARYYCATESRYYCSDNWPAPQRYIYWGQGTQVTVSS | > 1000 | 
SD3055 (VHH) VHH: EVQLVESGGGLVQPGGSLRLSCAASGLSLDTYAMSWFRQAPGKEREGITCISSGHGLTYYADSVKGRFTISRDNSKNTLYLQMNSLQPEDTARYYCATESRYYCSDNWPAPQRYIYWGQGTQVTVSS | > 1000 | 
SD3101 (VHH) VHH: EVQLVESGGGLVQPGGSLRLSCAISGLSLDTYAVGWFRQAPGKEREGVSCISSGHGSTYYADSVKGRFTISTDNSKNTLYLQMNSLRAEDTAVYYCATESRYYCSDNWPAPQRYIYWGQGTLVTVSS | > 1000 | > 1000
SD3052 (VHH) VHH: EVQLVESGGGLVQPGGSLRLSCAASGLSLDTYAMSWFRQAPGKEREGVSCISSGHGLTYYADSVKGRFTISRDNSKNTLYLQMNSLQPEDTARYYCATESRYYCSDNWPAPQRYIYWGQGTQVTVSS | > 1000 | 
SD3102 (VHH) VHH: EVQLVESGGGLVQPGGSLRLSCAISGLSLDTYAVGWFRQAPGKEREGVSCISSGHGQTYYADSVKGRFTISTDNSKNTLYLQMNSLRAEDTAVYYCATESRYYCSDNWPAPQRYIYWGQGTLVTVSS | > 1000 | > 1000
SD3076 (VHH) VHH: EVQLVESGGGLVQPGGSLRLSCAASGLSLDTYAVGWFRQAPGKEREGVSCISSGHGLTYYADSVKGRFTISTDNSKNTLYLQMNSLRAEDTAVYYCATESRYYCSDNWPAPQRYIYWGQGTLVTVSS | > 1000 | > 1000
SD3100 (VHH) VHH: EVQLVESGGGLVQPGGSLRLSCAISGLSLDTYAVGWFRQAPGKEREGVSCISSGHGATYYADSVKGRFTISTDNSKNTLYLQMNSLRAEDTAVYYCATESRYYCSDNWPAPQRYIYWGQGTLVTVSS | > 1000 | > 1000
SD3051 (VHH) VHH: EVQLVESGGGLVQPGGSLRLSCAASGLSLDTYAMSWFRQAPGKEREGVSCISSGHGITYYADSVKGRFTISRDNSKNTLYLQMNSLQPEDTARYYCATESRYYCSDNWPAPQRYIYWGQGTQVTVSS | > 1000 | 
SD3053 (VHH) VHH: EVQLVESGGGLVQPGGSLRLSCAASGLSLDTYAMSWFRQAPGKEREGVSCISSGHGFTYYADSVKGRFTISRDNSKNTLYLQMNSLQPEDTARYYCATESRYYCSDNWPAPQRYIYWGQGTQVTVSS | > 1000 | 
